Source: publication PMC12447514, “Modulation of Amyloid‑β Aggregation by Surface Proteins from Pathogens Associated with Alzheimer’s Disease” (ACS Chemical Neuroscience, 2025)

Target: the molecule itself
Experiment: SEC; HiLoad 16/600 Superdex 75 pg in PBS or 20 mM sodium phosphate, 200 μM EDTA pH 8; oligomeric state verified in Supporting Figure S2 (method not shown)

B1: Borrelia burgdorferi outer surface protein C (residues 11-191) (natural protein)
chain: ASTNPDESAKGPNLTEISKKITDSNAVVLAVKEVEALLSSIDELAKTIGKKIEANGLGNEADKNGSLLAGAYAISTLIKQKLDGLKGLEGLNKEIAEAKKCSEAFTKKLQDSNADLGKHNATDADSKEAILKTNGTKTKGAKELEELFKSVESLSKAAKEALSNSVKELTSPVVAESPKKP
notes: outer surface protein C of Borrelia burgdorferi sensu lato, UniProt P94245, residues 11-191; the N-terminal signal peptide was replaced by His-tagged polyubiquitin-B and a TEV protease cleavage site; also called OspC; Bb outer surface protein C; not shown: polyubiquitin-B with C-terminal His-tag (UniProt J3QS39), N-terminal, cleaved
  stoichiometry N: 2
